Several values for one entry are separate records, joined by “and”; a condition that tells them apart may be missing. Equal values may be shown once.
How the values were obtained:
[1] = target: T1, protein containing the extracellular domain of mouse TREM2 fused to Fc (mouse, UniProt Q99NH8 19-171); assay: SPR (Biacore)
T1 construct: extracellular domain; also called Mouse TREM2-Fc; not shown: Fc
T1 sequence (looked up): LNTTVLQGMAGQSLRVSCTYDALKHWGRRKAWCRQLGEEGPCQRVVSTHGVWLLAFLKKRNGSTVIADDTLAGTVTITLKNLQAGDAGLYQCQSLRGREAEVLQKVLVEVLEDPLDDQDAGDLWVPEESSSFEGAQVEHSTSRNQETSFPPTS
Description: (§1) A Surface Plasmon Resonance (Biacore) assay was used to assess the binding of humanized CGX101 (hCGX101), an IgG4 antibody, to the extracellular domain of human TREM2 and to a protein containing the extracellular domain of mouse TREM2 fused to Fc.

[2] = target: T2, extracellular domain (ECD) of human TREM2 (human, UniProt Q9NZC2 19-174); assay: SPR (Biacore)
T2 construct: also called Human TREM2-ECD; human TREM2-extracellular domain (ECD)
T2 sequence: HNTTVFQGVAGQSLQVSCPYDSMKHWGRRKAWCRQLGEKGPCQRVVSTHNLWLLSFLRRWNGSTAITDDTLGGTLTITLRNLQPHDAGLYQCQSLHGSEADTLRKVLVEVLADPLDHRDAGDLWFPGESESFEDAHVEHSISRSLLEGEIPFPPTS
Description: as §1

B1: humanized CGX101 (hCGX101), an IgG4 antibody (antibody, V domains shown)
VH: EVQLVQSGAEVKKPGESLKISCKGSGYTFTDYNIHWVRQMPGKGLEWMGYIYPKNGGTGYTQKFKSQVTISVDNSISTAYLQWSSLKASDTAMYYCARRTARASWFAFWGQGTLVTVSS
VL: DIVMTQSPATLSVSPGERATLSCKSSQSLLYSSNQKNYLAWYQQKPGQAPRVLIYWASTRESGIPARFSGSGSGTEFTLTISSLQSEDFAVYYCQQYYNYPFTFGQGTKLEIK
notes: also called hIgG4; huIgG4
- Kd [1]: 18.6 nM
- koff [1]: 0.00106 s⁻¹
- kon [1]: 57000 M⁻¹ s⁻¹
- Kd [2]: 5.74 nM and 5.73 nM
- koff [2]: 0.000715 s⁻¹
- kon [2]: 125000 M⁻¹ s⁻¹
